In publication PMC12754628:

Target: T1, CcpA (Staphylococcus aureus USA300) (UniProt P99175)
T1 sequence: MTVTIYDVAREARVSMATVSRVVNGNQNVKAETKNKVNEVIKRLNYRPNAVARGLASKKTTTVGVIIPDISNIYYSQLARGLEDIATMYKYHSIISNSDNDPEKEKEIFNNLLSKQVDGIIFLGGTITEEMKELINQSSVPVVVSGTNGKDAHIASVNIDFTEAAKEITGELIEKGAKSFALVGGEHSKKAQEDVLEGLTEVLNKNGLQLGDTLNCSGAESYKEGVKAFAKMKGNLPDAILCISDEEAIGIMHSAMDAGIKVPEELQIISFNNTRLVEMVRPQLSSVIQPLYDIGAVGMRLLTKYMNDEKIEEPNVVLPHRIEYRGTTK
Test: competition
Conditions: 10 mM Tris-HCl pH 8.0, 5 mM MgCl2, 1 mM DTT, 50 mM KCl, 0.05% Nonidet P-40, 2.5% glycerol, 25 C, 30 min; 6% native PAGE in 0.5x TBE

ATGCTTTACCAGCTTTGAATGCTGGAACTTTACTTGCTGGGATATCAATTTCTTTACCAGTTTGAGGGTTACGACCTTTACGTGCAGCACGTTCACGTACCTCAAAGTTACCGAAACCAATTAATTGTACTTTTTCACCTTTAGCAAGTGAGTTTTGGATTGATTCGAATACAGCATCTACTGCTGAACCAGCTTCTTTTT (double strand) [hu]
binding: no binding
